Laboratory results from PMC10806198, “Effects of OxyR regulator on oxidative stress, Apx toxin secretion and virulence of Actinobacillus pleuropneumoniae”.

T1: OxyR (rOxyR) (Actinobacillus pleuropneumoniae 4074 …, UniProt A0ABM6X4Q0 1-297)
T1 sequence: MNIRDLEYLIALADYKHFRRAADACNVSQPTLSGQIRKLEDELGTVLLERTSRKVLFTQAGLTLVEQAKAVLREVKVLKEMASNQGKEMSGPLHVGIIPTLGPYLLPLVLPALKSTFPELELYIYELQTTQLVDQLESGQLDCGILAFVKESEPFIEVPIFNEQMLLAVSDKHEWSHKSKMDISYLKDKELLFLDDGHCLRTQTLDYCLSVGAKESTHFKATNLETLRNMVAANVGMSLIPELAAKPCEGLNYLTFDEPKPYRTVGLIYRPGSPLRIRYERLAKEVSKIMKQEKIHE

B1: catalase promoter probe (05430p) (dsDNA)
DNA 1: ATAATAATATATCCATACACAAAACCTATTAACATTCCAA
DNA 2: TTGGAATGTTAATAGGTTTTGTGTATGGATATATTATTAT
B2: apxIBD promoter probe (ApxIBDp) (dsDNA)
DNA 1: ATGATAAATAGCAATCCTATATATATTAGGTGTGTAGGAT
DNA 2: ATCCTACACACCTAATATATATAGGATTGCTATTTATCAT
B3: oxyR promoter probe (oxyRp) (dsDNA)
DNA 1: GAACGTACCAGCCGTAAGGTATTATTTACCCAAGCCGGTT
DNA 2: AACCGGCTTGGGTAAATAATACCTTACGGCTGGTACGTTC

Biological target: T1, OxyR (rOxyR)
Assay: EMSA; dose-dependent; abolished by excess unlabeled probe; Lightshift EMSA binding buffer (composition and pH not given), 0.5 ul poly[d(I-C)], 10 ul, 25 C 30 min; 5% native PAGE in 0.5x TBE
Settings: protein: recombinant; tags: His (pET28a NdeI/XhoI, HisTrap purified); chain copies: 4; label: biotin 3'-end; blunt

Binder | binding result
B1 | binds
B2 | binds
B3 | binds
